Measured values from the RNAGym collection of RNA variant scans (doi:10.1093/molbev/msab373).

B1: Azoarcus group I ribozyme (parent)
chain: GUGCCUUGCGCCGGGAAACCACGCAAGGGAUGGUGUCAAAUUCGGCGAAACCUAAGCGCCCGCCCGGGCGUAUGGCAACGCCGAGCCAAGCUUCGGCGCCUGCGCCGAUGAAGGUGUAGAGACUAGACGGCACCCACCUAAGGCAAACGCUAUGGUGAAGGCAUAGUCCAGGGAGUGGCGAAAGUCACACAAACCGG

Variants of: B1
Experiment: reverse-splicing fitness (ratio to wild type); higher = more active; in vitro selection; Mg2+ level not given
In short: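 An in vitro group I ribozyme library with randomized positions was T7-transcribed and gel-purified. In triplicate, 10 pmol RNA in EPPS pH 7.5 was reacted with 50 pmoles of a 30-nt RNA substrate for 1 h at 37 °C across several added MgCl2 levels (1–48 mM), then stopped with EDTA. Products were reverse transcribed from a substrate-complementary primer, PCR-amplified and sequenced (HiSeq 4000). Fitness is a variant's read proportion after selection over that before, normalised to wild type.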

| Variant | reverse-splicing fitness |
| --- | --- |
| C82U A111C A120U A145U C150G C169U U176C | 0.00264 |
| C82U A111C A120U A145U C150G C169U U176G | 0.0025 |
| C82U A111C A120U A145U C150G C169U U176A | 0.00227 |
| C82U A111C A145C C150U C169A | 0.00854 |
| C82U A111C A145C C150U C169U | 0.00891 |
| C82U A111C A145C C150U C169G | 0.00727 |
| C82U A111C A120U C150G U176C | 0.00605 |
| C82U A111C A120U C150G U176A | 0.0035 |
| C82U A111C A120U C150G U176G | 0.00291 |
| C82U A111C A120U A145U C169A U176A | 0.00299 |
| C82U A111C A120U A145U C169A U176G | 0.00168 |
| C82U A111C A120U A145U C169A U176C | 0.00251 |
| C82U A111C A120U C150G C169U | 0.00611 |
| C82U A111C A120U C150G C169G | 0.00621 |
| C82U A111C A120U C150G C169A | 0.00691 |
| C82U A111C A145C C150G | 0.024 |
| C82U A111C A145C C150U | 0.0562 |
| C82U A111C A145C C150A | 0.0154 |
| C82U A111C A145G U176A | 0.0861 |
| C82U A111C A145G U176G | 0.0201 |
| C82U A111C A145G U176C | 0.113 |

| Variant | reverse-splicing fitness |
| --- | --- |
| C82U A111C A120U C150U C169A | 0.00496 |
| C82U A111C A120U C150U C169U | 0.00505 |
| C82U A111C A120U C150U C169G | 0.00449 |
| C82U A111C A120U A145U C169A | 0.00238 |
| C82U A111C A120U A145U C169G | 0.00369 |
| C82U A111C A120U A145U C169U | 0.00366 |
| C82U A111C A120U C150A | 0.0078 |
| C82U A111C A120U C150U | 0.0166 |
| C82U A111C A120U C150G | 0.00681 |
| C82U A111C A145C C150A C169G U176A | 0.024 |
| C82U A111C A145C C150A C169G U176G | 0.00743 |
| C82U A111C A145C C150A C169G U176C | 0.0205 |
| C82U A111C A120U A145U C150U C169A U176C | 0.00282 |
| C82U A111C A120U A145U C150U C169A U176G | 0.00229 |
| C82U A111C A120U A145U C150U C169A U176A | 0.00306 |
| C82U A111C A145G C169U U176A | 0.0178 |
| C82U A111C A145G C169U U176G | 0.00688 |
| C82U A111C A145G C169U U176C | 0.0148 |
| C82U A111C C150A C169U U176G | 0.00777 |
| C82U A111C C150A C169U U176C | 0.0169 |
| C82U A111C C150A C169U U176A | 0.0166 |

| Variant | reverse-splicing fitness |
| --- | --- |
| C82U A111C A145C C150U C169U U176G | 0.00631 |
| C82U A111C A145C C150U C169U U176C | 0.00946 |
| C82U A111C A145C C150U C169U U176A | 0.0154 |
| C82U A111C C150U C169G U176A | 0.0119 |
| C82U A111C C150U C169G U176C | 0.0161 |
| C82U A111C A145U C150U C169A U176G | 0.00765 |
| C82U A111C A145U C150U C169A U176C | 0.011 |
| C82U A111C A145U C150U C169A U176A | 0.0126 |
| C82U A111C A120U A145U C150G C169G U176G | 0.0024 |
| C82U A111C A120U C150A C169G | 0.00399 |
| C82U A111C A120U C150A C169U | 0.00491 |
| C82U A111C A120U C150A C169A | 0.00472 |
| C82U A111C A120U A145U C150U U176G | 0.0027 |
| C82U A111C A120U A145U C150U U176C | 0.0089 |
| C82U A111C A120U A145U C150U U176A | 0.00562 |
| C82U A111C A145C C150U C169G U176G | 0.0077 |
| C82U A111C A145C C150U C169G U176C | 0.0168 |
| C82U A111C A145C C150U C169G U176A | 0.0257 |
| C82U A111C A120U C150G C169G U176A | 0.00425 |
| C82U A111C A120U C150G C169G U176C | 0.00317 |
| C82U A111C A120U C150G C169G U176G | 0.00254 |

| Variant | reverse-splicing fitness |
| --- | --- |
| C82U A111C A145C C150G U176G | 0.00264 |
| C82U A111C A145C C150G U176A | 0.00961 |
| C82U A111C A145C C150G U176C | 0.0151 |
| C82U A111C A145U C150G C169A U176G | 0.00824 |
| C82U A111C A145U C150G C169A U176C | 0.0103 |
| C82U A111C A145U C150G C169A U176A | 0.00909 |
| C82U A111C A145C C150A C169A U176A | 0.0134 |
| C82U A111C A145C C150A C169A U176G | 0.00794 |
| C82U A111C A145C C150A C169A U176C | 0.00874 |
| C82U A111C A145U C150U U176C | 0.0704 |
| C82U A111C A145U C150U U176A | 0.0489 |
| C82U A111C A145U C150U U176G | 0.0152 |
| C82U A111C A145G C169A | 0.00937 |
| C82U A111C A145G C169G | 0.00955 |
| C82U A111C A145G C169U | 0.012 |
| C82U A111C A145U C150U C169G U176G | 0.00709 |
| C82U A111C A145U C150U C169G U176A | 0.0121 |
| C82U A111C A145U C150U C169G U176C | 0.0165 |
| C82U A111C A145G C150G U176C | 0.0166 |
| C82U A111C A145G C150G U176A | 0.0105 |
